Reference: patent publication CN114028562A (JIANGSU QYUNS BIOMEDICAL CO LTD, dated 2022)
Blank lines part the entries; values can stand above or below the binder they belong to.

What was measured:
食蟹猴TSLP = 食蟹猴TSLP (cynomolgus monkey, UniProt A0A7N9CAT7 29-159); experiment: cell-based or functional assay
[1] = molecular target: T1, 人胸腺基质淋巴细胞生成素(Human Thymic Stromal Lymphopoietin, TSLP) (human, UniProt Q969D9 29-159); experiment: cell-based or functional assay
[2] = molecular target: T1, 人胸腺基质淋巴细胞生成素(Human Thymic Stromal …); experiment: SPR, Biacore T200, 25°C, antibody captured on Protein A chip, TSLP as analyte, 1:1 model, mean of three runs

食蟹猴TSLP, sequence (A0A7N9CAT7 entry or part of it): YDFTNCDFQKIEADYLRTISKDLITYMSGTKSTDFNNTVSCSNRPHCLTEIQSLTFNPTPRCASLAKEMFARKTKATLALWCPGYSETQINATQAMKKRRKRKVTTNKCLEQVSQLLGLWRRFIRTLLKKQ

- IC50, inhibition of cynomolgus TSLP-induced STAT5 phosphorylation in SW756-STAT5-Luciferase reporter cells (食蟹猴TSLP): 1.88 ng/mL
B1: Tezepelumab (antibody, V domains shown)
VH: QMQLVESGGGVVQPGRSLRLSCAASGFTFRTYGMHWVRQAPGKGLEWVAVIWYDGSNKHYADSVKGRFTITRDNSKNTLNLQMNSLRAEDTAVYYCARAPQWELVHEAFDIWGQGTMVTVSS
VL: SYVLTQPPSVSVAPGQTARITCGGNNLGSKSVHWYQQKPGQAPVLVVYDDSDRPSWIPERFSGSNSGNTATLTISRGEAGDEADYYCQVWDSSSDHVVFGGGTKLTVLG

- IC50, inhibition of human TSLP-induced STAT5 phosphorylation in SW756-STAT5-Luciferase reporter cells [1]: 0.837 ng/mL
- IC50, inhibition of human TSLP-induced TARC(CCL17) release from human PBMC [1]: 77.1 ng/mL
- IC50, inhibition of human TSLP-induced TARC(CCL17) release from human whole blood [1]: 0.839 ng/mL
- IC50, inhibition of cynomolgus TSLP-induced STAT5 phosphorylation in SW756-STAT5-Luciferase reporter cells (食蟹猴TSLP): 0.889 ng/mL
- Kd [2]: 0.0175 nM
- koff [2]: 2.99e-05 s⁻¹
- kon [2]: 1.74e+06 M⁻¹ s⁻¹
B2: QX008N(HZD8G2-57) (antibody, V domains shown)
VH: EVQLVESGGGLVQPGGSLRLSCAASGFSLSSYYMSWVRQAPGKGLEWVGFISYGGSAYHATWAQGRFTISKDNSKNTLYLQMNSLRAEDTAVYYCAREFRSMTYGAEWGIWGQGTLVTVSS
VL: AYQMTQSPSSVSASVGDRVTITCQASESIYDTLAWYQQKPGKAPKLLIYSASSLASGVPSRFSGSGSGTDFTLTISSLQPEDFATYYCQQGYTMPDVDKNPFGGGTKVEIKR
